Test results as given in PMC9881148.

Columns and labels:
[1] = system: histone H1 (Homo sapiens); experiment: FCS; conditions: poly(ADP-ribose), 50 mM Tris pH 7.4, 150 mM NaCl, 3 mM DTT, 0.05% Tween20, 1 h room temperature, 10 nM nucleic acid
[2] = biological target: p53WT (Homo sapiens) (UniProt P04637); experiment: FCS; conditions: poly(ADP-ribose), 50 mM Tris pH 7.4, 150 mM NaCl, 3 mM DTT, 0.05% Tween20, 1 h room temperature, 10 nM nucleic acid
Chain of p53WT (Homo sapiens) (P04637 whole entry): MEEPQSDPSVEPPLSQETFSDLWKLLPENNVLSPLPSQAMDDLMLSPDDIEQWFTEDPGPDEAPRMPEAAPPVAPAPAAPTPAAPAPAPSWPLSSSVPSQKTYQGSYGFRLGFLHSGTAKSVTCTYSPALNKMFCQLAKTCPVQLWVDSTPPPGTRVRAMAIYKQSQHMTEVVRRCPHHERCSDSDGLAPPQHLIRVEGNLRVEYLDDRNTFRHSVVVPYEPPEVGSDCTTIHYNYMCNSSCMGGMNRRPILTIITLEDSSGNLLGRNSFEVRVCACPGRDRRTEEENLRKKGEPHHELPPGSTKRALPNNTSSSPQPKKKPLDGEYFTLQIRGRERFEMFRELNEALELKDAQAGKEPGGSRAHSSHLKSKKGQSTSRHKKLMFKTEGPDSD

How did the Kd ([1]; hyperbranched) turn out when PARHB 20-mer was run?
Its Kd is 8 nM.

PARHB 30-mer was tested. Which Kd ([2]; hyperbranched) did it give?
Its Kd is 99 nM.

With PARHB 40-mer as the substance, how does the Kd ([2]; hyperbranched) read?
Its Kd is 41 nM.

PARHB 50-mer was tested. Which Kd ([2]; hyperbranched) did it give?
The Kd was 30 nM.

Which Kd ([1]; also printed as 4 nM in the comparison with PARHB, linear) does the source give for PARWT 20-mer here?
Its Kd is 5 nM.

With PARWT 30-mer as the substance, how does the Kd ([2]; linear) read?
Its Kd is 28 nM.

For PARWT 40-mer, which Kd ([2]; linear) is on record?
The Kd was 7 nM.

With PARWT 50-mer as the substance, how does the Kd ([2]; first binding event, no saturation up to 5 uM, linear) read?
Its Kd is 8 nM.
